Target: T1, Strep-RBBP7 (UniProt Q16576 1-425)
T1 construct: called full-length in the results; also called full-length RBB7; source: HEK293FT, transiently transfected, purified (Strep-Tactin Sepharose, eluted with desthiobiotin)
Assay: pull-down; GST or GST-BCORL(S1474-G1644) (0.1 μM) on Glutathione Sepharose 4B with Strep-RBBP7 (0.1 μM), lysis buffer with 0.1% Triton X-100, overnight at 4°C; stain-free SDS-PAGE
Details: both partners purified

T1 sequence (Q16576 whole entry): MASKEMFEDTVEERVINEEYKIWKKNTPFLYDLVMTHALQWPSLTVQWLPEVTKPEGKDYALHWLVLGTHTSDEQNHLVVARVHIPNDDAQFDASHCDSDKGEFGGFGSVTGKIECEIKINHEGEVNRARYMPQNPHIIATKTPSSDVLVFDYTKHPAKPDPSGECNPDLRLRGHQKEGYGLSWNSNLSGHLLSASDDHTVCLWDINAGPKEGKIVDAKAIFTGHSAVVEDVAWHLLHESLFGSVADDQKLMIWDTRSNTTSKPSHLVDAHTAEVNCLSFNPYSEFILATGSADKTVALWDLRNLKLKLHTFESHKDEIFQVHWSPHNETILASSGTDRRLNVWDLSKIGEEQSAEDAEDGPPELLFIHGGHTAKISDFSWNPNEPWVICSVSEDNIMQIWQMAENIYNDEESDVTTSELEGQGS

- binding result: binds
B1: GST-BCORL(S1474-G1644) (domain or fragment, UniProt Q5H9F3 1474-1644, looked up)
chain: SESPTARQIPPEARRLIVNKNAGETLLQRAARLGYKDVVLYCLQKDSEDVNHRDNAGYTALHEACSRGWTDILNILLEHGANVNCSAQDGTRPVHDAVVNDNLETIWLLLSYGADPTLATYSGQTAMKLASSDTMKRFLSDHLSDLQGRAEGDPGVSWDFYSSSVLEEKDG
notes: also called GST-BCORL fragment; source: E. coli BL21, purified (Glutathione Sepharose 4B, eluted with glutathione, dialysed); not shown: GST, N-terminal, kept
